Measured values as given in paper PMC7730289, “Development of a CD63 Aptamer for Efficient Cancer Immunochemistry and Immunoaffinity-Based Exosome Isolation”.

Legend:
[1] = target: T1, CD63 large extracellular domain, recombinant (Homo sapiens, UniProt P08962 103-203); test: ELISA; PBS pH 7.4, 2.0 mM MgCl2, 0.02% Tween 20, 100 ug/mL salmon sperm DNA; ELISA 0.5 h; cells at RT 1 h (Methods) or 37 C 30 min (Results); settings: protein: commercial, tags: C-terminal His
HER2 = HER2 (Homo sapiens (Human), UniProt P04626 23-652); test: as above; settings: protein: commercial
[2] = target: T1, CD63 large extracellular domain, …; test: ELISA; 200 nM aptamer; PBS pH 7.4, 2.0 mM MgCl2, 0.02% Tween 20, 100 ug/mL salmon sperm DNA; ELISA 0.5 h; cells at RT 1 h (Methods) or 37 C 30 min (Results); settings: protein: commercial; tags: C-terminal His; label: biotin

T1 sequence (P08962 103-203): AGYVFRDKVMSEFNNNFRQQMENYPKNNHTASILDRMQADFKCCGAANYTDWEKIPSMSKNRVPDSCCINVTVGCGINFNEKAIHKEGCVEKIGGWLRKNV

TAACACGACAGACGTTCGGAGGTCGAACCCTGACAGCGTGGGC (ssDNA) [CD63-1]
Kd ([1]; label: 5' or 3' biotin (ELISA)): 38.7 nM | binding result (HER2; label: 5' or 3' biotin (ELISA)): no binding

TAACCACCCCACCTCGCTCCCGTGACACTAATGCTAATTCCAA (ssDNA) [CD63-2]
Kd ([1]; label: biotin (ELISA)): 78.4 nM | binding result (HER2; label: biotin (ELISA)): no binding

TACCTACGACATGCCTGTGCTAGCCGAACCATGCTGAGGTCGT (ssDNA) [CD63-6]
binding result [2]: no binding
